Measurements taken from patent publication US6780603.

Molecular target: α2β1 integrin receptor of human mesangial cells (human) (UniProt P05556)
Assay: cell-based or functional assay

inhibition of adhesion of human mesangial cells grown in 5 mM glucose to cIV (percent of binding in the presence of W6/32): 60% | inhibition of adhesion of human mesangial cells grown in 25 mM glucose to cIV (percent of binding in the presence of W6/32): 75%
Substance: P1H5 anti-α2 integrin monoclonal antibody
